Data on four compounds can be found in paper PMC3222833 (Journal of medicinal chemistry, 2011).

One series has as its target rhGCPII(K699S) mutant (Homo sapiens, UniProt Q04609, K699S). In words: Saturation kinetics of substrate hydrolysis by mutated GCPII. The series is classed as biochemical. The following applies: kinetic assay.
Series [1] deals with T1, recombinant human GCPII (rhGCPII) (Homo sapiens, UniProt Q04609). In words: Saturation kinetics of dipeptide hydrolysis by wild-type rhGCPII. The format is biochemical. The following applies: ratio of catalytic efficiency.
T1 sequence (Q04609 44-750): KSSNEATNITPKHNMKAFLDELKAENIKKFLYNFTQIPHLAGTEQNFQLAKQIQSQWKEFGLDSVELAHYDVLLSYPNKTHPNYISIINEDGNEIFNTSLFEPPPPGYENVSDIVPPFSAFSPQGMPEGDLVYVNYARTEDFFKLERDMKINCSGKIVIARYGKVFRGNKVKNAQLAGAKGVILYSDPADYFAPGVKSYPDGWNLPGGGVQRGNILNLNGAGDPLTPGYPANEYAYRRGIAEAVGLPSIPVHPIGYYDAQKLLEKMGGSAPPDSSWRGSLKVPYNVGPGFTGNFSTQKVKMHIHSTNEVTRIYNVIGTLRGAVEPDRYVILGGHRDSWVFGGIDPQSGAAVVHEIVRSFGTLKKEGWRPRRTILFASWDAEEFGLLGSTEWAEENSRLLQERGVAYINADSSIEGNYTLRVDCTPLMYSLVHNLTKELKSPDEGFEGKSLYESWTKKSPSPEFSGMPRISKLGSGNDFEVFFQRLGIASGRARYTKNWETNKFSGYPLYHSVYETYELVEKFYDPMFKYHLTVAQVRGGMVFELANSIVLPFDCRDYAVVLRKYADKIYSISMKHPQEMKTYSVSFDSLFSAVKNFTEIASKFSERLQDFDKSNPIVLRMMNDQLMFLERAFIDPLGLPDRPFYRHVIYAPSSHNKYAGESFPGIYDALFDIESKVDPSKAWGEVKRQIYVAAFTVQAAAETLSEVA
For the next series, the system named is rhGCPII. The following applies: WT rhGCPII, radioenzymatic assay with 3H-NAAG; cited from earlier work.
For series [2], the target named is T1, recombinant human GCPII (rhGCPII). The following applies: cited from earlier work.
Series [3] deals with CC[C@H](NC(=O)[C@H](CC(=O)O)NC(C)=O)C(=O)O. Kind of series: Saturation kinetics of dipeptide hydrolysis by wild-type rhGCPII. The format is biochemical, human. To be noted: other: wild-type rhGCPII, Table 1; 37.0 °C.
Series [4] deals with CCC[C@H](NC(=O)[C@H](CC(=O)O)NC(C)=O)C(=O)O. The description is as above. The series is classed as biochemical, human. To be noted: other: wild-type rhGCPII, Table 1; 37.0 °C.
In series [5] the test system is CCCCCC(NC(=O)[C@H](CC(=O)O)NC(C)=O)C(=O)O. The description is as above. The format is biochemical, human. To be noted: other: wild-type rhGCPII, Table 1; 37.0 °C.
Series [6] relates to CC(=O)N[C@@H](CC(=O)O)C(=O)N[C@@H](C)C(=O)O. The series is described as above. The series is classed as biochemical, human. To be noted: other: wild-type rhGCPII, Table 1; 37.0 °C.
Series [7] deals with CCCCCCCC(NC(=O)[C@H](CC(=O)O)NC(C)=O)C(=O)O. The series is described as above. The format is biochemical, human. To be noted: 37.0 °C.
Series [8] concerns CCCCCCC(NC(=O)[C@H](CC(=O)O)NC(C)=O)C(=O)O. The description is as above. The series is classed as biochemical, human. The following applies: other: wild-type rhGCPII, Table 1; 37.0 °C.
Series [9] has as its system CSCC[C@H](NC(=O)[C@H](CC(=O)O)NC(C)=O)C(=O)O. Described as above. The following applies: other: wild-type GCPII, Table 2; 37.0 °C. The series is classed as biochemical, human.
The subject of series [10] is CCCC[C@H](NC(=O)[C@H](CC(=O)O)NC(C)=O)C(=O)O. The description is as above. The series is classed as biochemical, human. To be noted: other: wild-type rhGCPII, Table 1; 37.0 °C.
[11] abbreviates: other: wild-type GCPII, Table 2.
[12] abbreviates: other: wild-type rhGCPII, Table 1.

Several values for one entry are separate records, joined by “and”; a condition that tells them apart may be missing. Equal entries are not always repeated. Residues, ends and D or L forms follow the SMILES beside them.

rhGCPII(K699S) mutant, sequence (Q04609 44-750 K699S): as the sequence (Q04609 44-750) above, with K656S counted along it

`CCCCCCCC(NC(=O)[C@H](CC(=O)O)NC(C)=O)C(=O)O` (some centres unmarked) [8S, Ac-Asp-Ano]: at rhGCPII(K699S) mutant, the “stronger binding to K699S mutant compared to wild-type GCPII” value is “approximately 3 fold”. Also, the “efficiency of rhGCPII hydrolysis compared to Ac-Asp-Ala” value in series [1] is reported as “approximately 20 fold”.
Usually Km stands for the substrate concentration at which the rate is half of its maximum. One may read the kcat as the number of substrate molecules converted per active site and unit of time at saturation. On to `CC(=O)N[C@@H](CC(=O)O)C(=O)N[C@@H](CCC(=O)O)C(=O)O` [NAAG, N-acetyl-aspartyl-glutamate] (Ac-Asp-Glu-OH), for which, in the series on rhGCPII, the Km was 1200 ± 500 nM; the kcat is 1.1 ± 0.2 ^# s^-1 and 1.1 ± 0.2 ^* s^-1.
As for `CSCC[C@H](NC(=O)[C@H](CC(=O)O)NC(C)=O)C(=O)O` [NAAM, N-acetyl-aspartyl-methionine] (Ac-Asp-Met-OH), the Km in [2] was 24.8 ± 2.9 µM.
As usually defined, the kcat/Km is the turnover number divided by the Michaelis constant. Regarding “recombinant human GCPII (rhGCPII) (Homo sapiens)”, the Michaelis constant (Km) was found to be 29 ± 8 µM in series [3]; 31 ± 12 µM in series [4]; 12 ± 1 µM in series [5]; 85 ± 21 µM in [6]; 10.4 ± 2.5 µM in series [7] (setting [11]); 10 ± 2 µM in series [7] (setting [12]). The Km in [8] amounted to 8 ± 2 µM; in [9], 7.5 ± 1.6 µM; in [10], 19 ± 4 µM. For the same compound, the kcat in series [3] amounted to 0.25 ± 0.03 s⁻¹; in series [4], 0.42 ± 0.05 s⁻¹; in [5], 0.44 ± 0.04 s⁻¹; in series [6] it was 0.23 ± 0.05 s⁻¹; in series [7] (setting [11]), 0.62 ± 0.10 s⁻¹; in [7] (setting [12]), 0.62 ± 0.1 s⁻¹. In addition, the kcat in series [8] came out at 0.6 ± 0.03 s⁻¹; in [9], 0.32 ± 0.07 s⁻¹; in [10] it was 0.24 ± 0.01 s⁻¹. The kcat/Km turned out to be 8600 M⁻¹ s⁻¹ in series [3]; 13500 M⁻¹ s⁻¹ in [4]; 36700 M⁻¹ s⁻¹ in [5]; 2700 M⁻¹ s⁻¹ in [6]; 59.6 L/mmol/s in [7] (setting [11]); 62 L/mmol/s in series [7] (setting [12]). For the same compound, the results for the kcat/Km in series [8], in series [9] and in series [10] were 75000 M⁻¹ s⁻¹, 42.7 L/mmol/s and 12600 M⁻¹ s⁻¹, respectively.
